Publication PMC4288057, “Garlic γ-glutamyl transpeptidases that catalyze deglutamylation of biosynthetic intermediate of alliin” (Frontiers in Plant Science, 2015)

Substrate: C=CCSC[C@H](NC(=O)CC[C@H](N)C(=O)O)C(=O)O
Test: HPLC of S-allyl-L-cysteine formed, crude yeast extract
Type: biochemical, Allium sativum
Conditions: 10 mM glycylglycine as acceptor, 50 mM Tris-HCl pH 8.0 (standard assay), 37°C, 6 h

| Protein | Km [µM] |
| --- | --- |
| AsGGT2 (Allium sativum) (protein, full-length coding region (622 aa), no tag, pYES2 in Saccharomyces cerevisiae BJ2168, crude yeast protein extract) MEPAHDDLESSLLRYRPLHNDHTTVRRYPIIIIVATFVVFGLLFSIQFNLDNSERVYELKTKSGGEVVQSEVGVVAADDGYCSETGASILRKGGHAVDALVATAICEGIRHPMSSGIGGGAFIVVRSAKDGKAFAFDARETAPIASSRDMYQNNHSDKCLGPLSIGIPGEVAGLHAIWKMYGKLPWKSLFQPSIDLLRNGFKIVPYLDMSIREHADKILSDPGLREVFAPNGRLLRLNDTLYNYRLVNSLETIAREGPQALYSGSIGEKFIQDVRDLGGIITMDDMENYKVEVTEALSGNALGYTIIGMPPPSTGTVGISMVLNILGSYKTLDAVKGLIGIHRLIEAIKHTLGMRMNLGDPNFVNITEYVNDMLSPTYAEKVKERIFDNTTFDLSYYSNKWSQLSDHGTSHVSIVDSERNAVSFTSTINEYFGAGVMSPATGIIANNEMCDFATPTDETVDDIPPAPTNFIEPNKRPLSSMSPLIILKDDNLAGVIGASGGMNIIPAIAQVLINYFILGMDPLKAVQYPRFYHRFTPNVVLYENYTAVNGENFMFPEAAIKFLEERHHQLQMKAGVAAVCQFVVQNLTESGSSNANMKNGGHLRGMLTAVSDPRKDGSPACV | 1100 |
| AsGGT1 (Allium sativum) (protein, full-length coding region (627 aa), no tag, pYES2 in Saccharomyces cerevisiae BJ2168, crude yeast protein extract) MNQMAPASSDQKLGTSLIVRENSTDRRFALHWILILAALTTLFALGLHLSSVQYRGSEELGEFRKGLKSTGGSDAVESEKGVVAADDGYCSEIGASVLRKGGHAVDAVVATAICEGVRHPMSSGIGGGAFMVVRSAKDGKALAFDARETAPLAASKDMYQNNPLAKSLGPLSMGIPGEIAGLHAAWLLYGKLPWKSLFEPSITLLKNGVKIEPYLALSINDNKDKIMSDPGLAEVFAPNGKLLQLNDTFYNFKLADSLEAIAEEGPQAFYNGSIGQKFIQDIRNLGGIVTMNDMRKYTVEITEPLYSDVLGYTLVGMPLPSSGTLGVSMVLNILGSYETLNAMKGFHGLHRLIEAVKHTLAIRMNLGDSKFVNCTKYVDDMLSPTYAEQVKERIFDNTTFDPSYYLNRWSQIRDHGTSHMSIVDSERNAVAFTSTVNMYFGGGVMSPSTGIVANNEMDDFSIPTDATEDGLPPAPSNFIEPNKRPLSSMSPLIILKDNQLAGVLGASGGMNIIPAVSQVFINHFVLGVDPLKAVQHPRFYHTLIPNLVQYENWTALDGELFEFSEAAKEFLAKRNHQLQMKSGAGAVCQFVVQNLTSSNSNKETDGIIRGMLTAVSDPRKDGSPACV | 86 |
| AsGGT3 (Allium sativum) (protein, full-length coding region (605 aa), no tag, pYES2 in Saccharomyces cerevisiae BJ2168, crude yeast protein extract) MLINSYPAYHCFPHTEEFHQNFMPAYITKWLAVTLLLLVFYKPILAGDEIRHRREVITSKNGAVASDDGRCSVIGTDVLKEGGNAIDAAVAASFCLGVVSAASSGIGGGAFMLIRMANGEAHAIDMRETAPLHASQNMYNGNAILKGSGILSVAVPGEIAGLHKAWKQHGKLPWKRLVMPAAKIAKAGFEISKYLYMQMNRTKSEILKDKGMQDIYASNGTLLNPGDICRNKELACTLREIAVHGPKVFYNGSVGIKLVKDIQKLGGILTLNDLKNYRVKVNKPISANVMGYEILGMPPPSSGGAGMILILNILAQYGIPSGVSGSLGLHRFIESLKHMMAIRMNLGDPEFVNVSQVLSEMLSPKFAEDLKKRIYDNMTFDPSYYGPKWNLVNDHGTSHLSIVDSERNAVSMTSTVNSYFGAGIVSPSTGIVLNNEMDDFSIPSNSSNNNMPPPAPANFIAPLKRPLSSMSPTVVLKDGKLVASLGASGGGMIIAAATHIFLKLFAEKLDPLASALSPRSYHQLIPNVVQYEDWMTVIGDHFLVAEKERAALEKKGHVLKPLAGGTICQFVIQGADDAKELGLGIANGDLMAISDPRKGGIPDGY | 9400 |
